Measured values published in the supplement of paper PMC5998384.

Assays:
HeLa Kyoto [1] = assay: melting temperature (median over replicates), in situ; higher = more thermally stable
HeLa Kyoto [2] = assay: thermal stability score vs G1/S (z-score of summed log2 fold changes over temperatures); higher = more thermally stable than in G1/S
HeLa Kyoto [3] = assay: solubility in G1/S (NP-40 vs SDS abundance) (log2 ratio); higher = more soluble; conditions: cell cycle stage: G1/S
HeLa Kyoto [4] = assay: solubility change mitosis vs G1/S (difference of NP-40 vs SDS log2 ratios) (log2 ratio difference); higher = more soluble in mitosis
[5] = cell cycle stage: early G1 (4.5 h after nocodazole release)
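Wherever melting temperature (median over replicates), in situ is given: HeLa Kyoto cells synchronized by double thymidine or nocodazole block, proteins quantified by TMT10plex mass spectrometry, three independent biological replicates.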
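Wherever solubility change mitosis vs G1/S (difference of NP-40 vs SDS log2 ratios) is given: synchronized HeLa Kyoto cells (double thymidine block for G1/S, nocodazole release for mitosis), protein amounts in NP-40 versus SDS lysates quantified by mass spectrometry, three biological replicates.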
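Wherever solubility in G1/S (NP-40 vs SDS abundance) is given: HeLa Kyoto cells arrested at G1/S by double thymidine block, proteins quantified by TMT10plex mass spectrometry in mild NP-40 versus SDS extracts, three biological replicates.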
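Wherever thermal stability score vs G1/S (z-score of summed log2 fold changes over temperatures) is given: synchronized HeLa Kyoto cells, proteins quantified by TMT10plex mass spectrometry, three biological replicates, mitosis taken 0.5 h after nocodazole release, G1/S directly after double thymidine block.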

Sequence	melting temperature (HeLa Kyoto [1]; cell cycle stage: G1/S)	melting temperature (HeLa Kyoto [1]; cell cycle stage: mitosis)	thermal stability score (HeLa Kyoto [2]; [5])	thermal stability score (HeLa Kyoto [2]; cell cycle stage: mitosis)	solubility in G1/S (log2) (HeLa Kyoto [3])	solubility change mitosis (log2) (HeLa Kyoto [4])
MGDSHVDTSSTVSEAVAEEVSLFSMTDMILFSLIVGLLTYWFLFRKKKEEVPEFTKIQTLTSSVRESSFVEKMKKTGRNIIVFYGSQTGTAEEFANRLSKDAHRYGMRGMSADPEEYDLADLSSLPEIDNALVVFCMATYGEGDPTDNAQDFYDWLQETDVDLSGVKFAVFGLGNKTYEHFNAMGKYVDKRLEQLGAQRIFELGLGDDDGNLEEDFITWREQFWPAVCEHFGVEATGEESSIRQYELVVHTDIDAAKVYMGEMGRLKSYENQKPPFDAKNPFLAAVTTNRKLNQGTERHLMHLELDISDSKIRYESGDHVAVYPANDSALVNQLGKILGADLDVVMSLNNLDEESNKKHPFPCPTSYRTALTYYLDITNPPRTNVLYELAQYASEPSEQELLRKMASSSGEGKELYLSWVVEARRHILAILQDCPSLRPPIDHLCELLPRLQARYYSIASSSKVHPNSVHICAVVVEYETKAGRINKGVATNWLRAKEPAGENGGRALVPMFVRKSQFRLPFKATTPVIMVGPGTGVAPFIGFIQERAWLRQQGKEVGETLLYYGCRRSDEDYLYREELAQFHRDGALTQLNVAFSREQSHKVYVQHLLKQDREHLWKLIEGGAHIYVCGDARNMARDVQNTFYDIVAELGAMEHAQAVDYIKKLMTKGRYSLDVWS [POR]	51.6 °C	51.1 °C	4.17	5.83	0.0892	-0.125
MGEEDYYLELCERPVQFEKANPVNCVFFDEANKQVFAVRSGGATGVVVKGPDDRNPISFRMDDKGEVKCIKFSLENKILAVQRTSKTVDFCNFIPDNSQLEYTQECKTKNANILGFCWTSSTEIVFITDQGIEFYQVLPEKRSLKLLKSHNLNVNWYMYCPESAVILLSTTVLENVLQPFHFRAGTMSKLPKFEIELPAAPKSTKPSLSERDIAMATIYGQLYVLFLRHHSRTSNSTGAEVVLYHLPREGACKKMHILKLNRTGKFALNVVDNLVVVHHQDTETSVIFDIKLRGEFDGSVTFHHPVLPARSIQPYQIPITGPAAVTSQSPVPCKLYSSSWIVFQPDIIISASQGYLWNLQVKLEPIVNLLPDKGRLMDFLLQRKECKMVILSVCSQMLSESDRASLPVIATVFDKLNHEYKKYLDAEQSYAMAVEAGQSRSSPLLKRPVRTQAVLDQSDVYTHVLSAFVEKKEMPHKFVIAVLMEYIRSLNQFQIAVQHYLHELVIKTLVQHNLFYMLHQFLQYHVLSDSKPLACLLLSLESFYPPAHQLSLDMLKRLSTANDEIVEVLLSKHQVLAALRFIRGIGGHDNISARKFLDAAKQTEDNMLFYTIFRFFEQRNQRLRGSPNFTPGEHCEEHVAFFKQIFGDQALMRPTTF [C18ORF8]	51.1 °C	50.8 °C	0.23	0.326	-0.0478	-0.121
MGEIKVSPDYNWFRGTVPLKKIIVDDDDSKIWSLYDAGPRSIRCPLIFLPPVSGTADVFFRQILALTGWGYRVIALQYPVYWDHLEFCDGFRKLLDHLQLDKVHLFGASLGGFLAQKFAEYTHKSPRVHSLILCNSFSDTSIFNQTWTANSFWLMPAFMLKKIVLGNFSSGPVDPMMADAIDFMVDRLESLGQSELASRLTLNCQNSYVEPHKIRDIPVTIMDVFDQSALSTEAKEEMYKLYPNARRAHLKTGGNFPYLCRSAEVNLYVQIHLLQFHGTKYAAIDPSMVSAEELEVQKGSLGISQEEQ [SPG21]	49.5 °C	49 °C	0.11	0.524	0.00691	-0.157
MGELPLDINIQEPRWDQSTFLGRARHFFTVTDPRNLLLSGAQLEASRNIVQNYRAGVVTPGITEDQLWRAKYVYDSAFHPDTGEKVVLIGRMSAQVPMNMTITGCMLTFYRKTPTVVFWQWVNQSFNAIVNYSNRSGDTPITVRQLGTAYVSATTGAVATALGLKSLTKHLPPLVGRFVPFAAVAAANCINIPLMRQRELQVGIPVADEAGQRLGYSVTAAKQGIFQVVISRICMAIPAMAIPPLIMDTLEKKDFLKRRPWLGAPLQVGLVGFCLVFATPLCCALFPQKSSIHISNLEPELRAQIHEQNPSVEVVYYNKGL [SFXN3]	53.6 °C	53.5 °C	-0.249	-0.897	0.286	-0.0789
MGETMSKRLKLHLGGEAEMEERAFVNPFPDYEAAAGALLASGAAEETGCVRPPATTDEPGLPFHQDGKIIHNFIRRIQTKIKDLLQQMEEGLKTADPHDCSAYTGWTGIALLYLQLYRVTCDQTYLLRSLDYVKRTLRNLNGRRVTFLCGDAGPLAVGAVIYHKLRSDCESQECVTKLLQLQRSVVCQESDLPDELLYGRAGYLYALLYLNTEIGPGTVCESAIKEVVNAIIESGKTLSREERKTERCPLLYQWHRKQYVGAAHGMAGIYYMLMQPAAKVDQETLTEMVKPSIDYVRHKKFRSGNYPSSLSNETDRLVHWCHGAPGVIHMLMQAYKVFKEEKYLKEAMECSDVIWQRGLLRKGYGICHGTAGNGYSFLSLYRLTQDKKYLYRACKFAEWCLDYGAHGCRIPDRPYSLFEGMAGAIHFLSDVLGPETSRFPAFELDSSKRD [LANCL2]	57.7 °C	55.4 °C	-0.346	-0.592	-0.0171	-0.119
MGGCTVKPQLLLLALVLHPWNPCLGADSEKPSSIPTDKLLVITVATKESDGFHRFMQSAKYFNYTVKVLGQGEEWRGGDGINSIGGGQKVRLMKEVMEHYADQDDLVVMFTECFDVIFAGGPEEVLKKFQKANHKVVFAADGILWPDKRLADKYPVVHIGKRYLNSGGFIGYAPYVNRIVQQWNLQDNDDDQLFYTKVYIDPLKREAINITLDHKCKIFQTLNGAVDEVVLKFENGKARAKNTFYETLPVAINGNGPTKILLNYFGNYVPNSWTQDNGCTLCEFDTVDLSAVDVHPNVSIGVFIEQPTPFLPRFLDILLTLDYPKEALKLFIHNKEVYHEKDIKVFFDKAKHEIKTIKIVGPEENLSQAEARNMGMDFCRQDEKCDYYFSVDADVVLTNPRTLKILIEQNRKIIAPLVTRHGKLWSNFWGALSPDGYYARSEDYVDIVQGNRVGVWNVPYMANVYLIKGKTLRSEMNERNYFVRDKLDPDMALCRNAREMGVFMYISNRHEFGRLLSTANYNTSHYNNDLWQIFENPVDWKEKYINRDYSKIFTENIVEQPCPDVFWFPIFSEKACDELVEEMEHYGKWSGGKHHDSRISGGYENVPTDDIHMKQVDLENVWLHFIREFIAPVTLKVFAGYYTKGFALLNFVVKYSPERQRSLRPHHDASTFTINIALNNVGEDFQGGGCKFLRYNCSIESPRKGWSFMHPGRLTHLHEGLPVKNGTRYIAVSFIDP [PLOD2]	53.9 °C	54.6 °C	3.26	4.23	0.13	-0.123
MGGRVFLAFCVWLTLPGAETQDSRGCARWCPQNSSCVNATACRCNPGFSSFSEIITTPTETCDDINECATPSKVSCGKFSDCWNTEGSYDCVCSPGYEPVSGAKTFKNESENTCQDVDECQQNPRLCKSYGTCVNTLGSYTCQCLPGFKFIPEDPKVCTDVNECTSGQNPCHSSTHCLNNVGSYQCRCRPGWQPIPGSPNGPNNTVCEDVDECSSGQHQCDSSTVCFNTVGSYSCRCRPGWKPRHGIPNNQKDTVCEDMTFSTWTPPPGVHSQTLSRFFDKVQDLGRDSKTSSAEVTIQNVIKLVDELMEAPGDVEALAPPVRHLIATQLLSNLEDIMRILAKSLPKGPFTYISPSNTELTLMIQERGDKNVTMGQSSARMKLNWAVAAGAEDPGPAVAGILSIQNMTTLLANASLNLHSKKQAELEEIYESSIRGVQLRRLSAVNSIFLSHNNTKELNSPILFAFSHLESSDGEAGRDPPAKDVMPGPRQELLCAFWKSDSDRGGHWATEGCQVLGSKNGSTTCQCSHLSSFAILMAHYDVEDWKLTLITRVGLALSLFCLLLCILTFLLVRPIQGSRTTIHLHLCICLFVGSTIFLAGIENEGGQVGLRCRLVAGLLHYCFLAAFCWMSLEGLELYFLVVRVFQGQGLSTRWLCLIGYGVPLLIVGVSAAIYSKGYGRPRYCWLDFEQGFLWSFLGPVTFIILCNAVIFVTTVWKLTQKFSEINPDMKKLKKARALTITAIAQLFLLGCTWVFGLFIFDDRSLVLTYVFTILNCLQGAFLYLLHCLLNKKVREEYRKWACLVAGGSKYSEFTSTTSGTGHNQTRALRASESGI [CD97]	59.6 °C	58.4 °C	0.176	-0.537	0.257	-0.171
MGGVGEPGPREGPAQPGAPLPTFCWEQIRAHDQPGDKWLVIERRVYDISRWAQRHPGGSRLIGHHGAEDATDAFRAFHQDLNFVRKFLQPLLIGELAPEEPSQDGPLNAQLVEDFRALHQAAEDMKLFDASPTFFAFLLGHILAMEVLAWLLIYLLGPGWVPSALAAFILAISQAQSWCLQHDLGHASIFKKSWWNHVAQKFVMGQLKGFSAHWWNFRHFQHHAKPNIFHKDPDVTVAPVFLLGESSVEYGKKKRRYLPYNQQHLYFFLIGPPLLTLVNFEVENLAYMLVCMQWADLLWAASFYARFFLSYLPFYGVPGVLLFFVAVRVLESHWFVWITQMNHIPKEIGHEKHRDWVSSQLAATCNVEPSLFTNWFSGHLNFQIEHHLFPRMPRHNYSRVAPLVKSLCAKHGLSYEVKPFLTALVDIVRSLKKSGDIWLDAYLHQ [FADS3]	54.5 °C	53.9 °C	-1.31	-0.774	-0.263	0.0263
MGIKVQRPRCFFDIAINNQPAGRVVFELFSDVCPKTCENFRCLCTGEKGTGKSTQKPLHYKSCLFHRVVKDFMVQGGDFSEGNGRGGESIYGGFFEDESFAVKHNKEFLLSMANRGKDTNGSQFFITTKPTPHLDGHHVVFGQVISGQEVVREIENQKTDAASKPFAEVRILSCGELIPKSKVKKEEKKRHKSSSSSSSSSSDSDSSSDSQSSSDSSDSESATEEKSKKRKKKHRKNSRKHKKEKKKRKKSKKSASSESEAENLEAQPQSTVRPEEIPPIPENRFLMRKSPPKADEKERKNRERERERECNPPNSQPASYQRRLLVTRSGRKIKGRGPRRYRTPSRSRSRDRFRRSETPPHWRQEMQRAQRMRVSSGERWIKGDKSELNEIKENQRSPVRVKERKITDHRNVSESPNRKNEKEKKVKDHKSNSKERDIRRNSEKDDKYKNKVKKRAKSKSRSKSKEKSKSKERDSKHNRNEEKRMRSRSKGRDHENVKEKEKQSDSKGKDQERSRSKEKSKQLESKSNEHDHSKSKEKDRRAQSRSRECDITKGKHSYNSRTRERSRSRDRSRRVRSRTHDRDRSRSKEYHRYREQEYRRRGRSRSRERRTPPGRSRSKDRRRRRRDSRSSEREESQSRNKDKYRNQESKSSHRKENSESEKRMYSKSRDHNSSNNSREKKADRDQSPFSKIKQSSQDNELKSSMLKNKEDEKIRSSVEKENQKSKGQENDHVHEKNKKFDHESSPGTDEDKSG [PPIG]	45.8 °C	47.6 °C	1.25	2.05	-1.67	0.846
MGIQGGSVLFGLLLVLAVFCHSGHSLQCYNCPNPTADCKTAVNCSSDFDACLITKAGLQVYNKCWKFEHCNFNDVTTRLRENELTYYCCKKDLCNFNEQLENGGTSLSEKTVLLLVTPFLAAAWSLHP [CD59]	56.8 °C	64.9 °C	-2.05	-3.23	-0.814	-0.0336
MGKGCKVVVCGLLSVGKTAILEQLLYGNHTIGMEDCETMEDVYMASVETDRGVKEQLHLYDTRGLQEGVELPKHYFSFADGFVLVYSVNNLESFQRVELLKKEIDKFKDKKEVAIVVLGNKIDLSEQRQVDAEVAQQWAKSEKVRLWEVTVTDRKTLIEPFTLLASKLSQPQSKSSFPLPGRKNKGNSNSEN [NKIRAS1]	48.9 °C	48.6 °C	2.91e-19	-1.95e-17	0.0841	-0.0109
